According to PMC2929534 (Biochemistry, 2010):
Where two headings read alike, the source gives them in different places.

What was measured:
[1] = target: AsiA M1A mutant (bacteriophage T4) (UniProt P32267); assay: dynamic light scattering
[2] = target: AsiA M1A mutant (bacteriophage T4) (UniProt P32267); assay: AUC
[3] = target: the molecule itself; assay: dynamic light scattering
[4] = target: the molecule itself; assay: AUC
[5] = target: σ^70 subunit of Escherichia coli RNA polymerase (E. coli, UniProt P00579 1-613); assay: native gel or EMSA
[6] = target: the molecule itself; assay: AUC; remark: listed apart in the source

Molecule | stoichiometry N [3] | Ka [4] | Kd [4] | further results
AsiA M1A mutant (from UniProt P32267 1-90) (natural protein) | – | – | – | stoichiometry N [1]: 2; Ka [2]: 3.8e+06 M⁻¹; Kd [2]: 260 nM; stoichiometry N [2]: 2
AsiA protein (wild type) (natural protein, bacteriophage T4, UniProt P32267 1-90, looked up) MNKNIDTVREIITVASILIKFSREDIVENRANFIAFLNEIGVTHEGRKLNQNSFRKIVSELTQEDKKTLIDEFNEGFEGVYRYLEMYTNK | 2 | 2.8e+06 M⁻¹ | 350 nM | –
AsiA E39A mutant (natural protein, bacteriophage T4, UniProt P32267 1-90, looked up) MNKNIDTVREIITVASILIKFSREDIVENRANFIAFLNAIGVTHEGRKLNQNSFRKIVSELTQEDKKTLIDEFNEGFEGVYRYLEMYTNK | 2 | 5.7e+06 M⁻¹ | 180 nM | –
AsiA K20A mutant (natural protein, bacteriophage T4, UniProt P32267 1-90, looked up) MNKNIDTVREIITVASILIAFSREDIVENRANFIAFLNEIGVTHEGRKLNQNSFRKIVSELTQEDKKTLIDEFNEGFEGVYRYLEMYTNK | 2 | 2.1e+06 M⁻¹ | 480 nM | –
AsiA F21A mutant (natural protein, bacteriophage T4, UniProt P32267 1-90, looked up) MNKNIDTVREIITVASILIKASREDIVENRANFIAFLNEIGVTHEGRKLNQNSFRKIVSELTQEDKKTLIDEFNEGFEGVYRYLEMYTNK | 2 | 4.7e+06 M⁻¹ | 210 nM | –
AsiA V14A mutant (natural protein, bacteriophage T4, UniProt P32267 1-90, looked up) MNKNIDTVREIITAASILIKFSREDIVENRANFIAFLNEIGVTHEGRKLNQNSFRKIVSELTQEDKKTLIDEFNEGFEGVYRYLEMYTNK | 2 | 820000 M⁻¹ | 1200 nM | –
AsiA I40A mutant (natural protein, bacteriophage T4, UniProt P32267 1-90, looked up) MNKNIDTVREIITVASILIKFSREDIVENRANFIAFLNEAGVTHEGRKLNQNSFRKIVSELTQEDKKTLIDEFNEGFEGVYRYLEMYTNK | 2 | 360000 M⁻¹ | 2700 nM | –
AsiA L18A mutant (natural protein, bacteriophage T4, UniProt P32267 1-90, looked up) MNKNIDTVREIITVASIAIKFSREDIVENRANFIAFLNEIGVTHEGRKLNQNSFRKIVSELTQEDKKTLIDEFNEGFEGVYRYLEMYTNK | – | – | – | binding result [5]: binds
AsiA I17A mutant (natural protein, bacteriophage T4, UniProt P32267 1-90, looked up) MNKNIDTVREIITVASALIKFSREDIVENRANFIAFLNEIGVTHEGRKLNQNSFRKIVSELTQEDKKTLIDEFNEGFEGVYRYLEMYTNK | 2 | 200000 M⁻¹ | 4900 nM | –
AsiA I17A/I40A double mutant (natural protein, bacteriophage T4, UniProt P32267 1-90, looked up) MNKNIDTVREIITVASALIKFSREDIVENRANFIAFLNEAGVTHEGRKLNQNSFRKIVSELTQEDKKTLIDEFNEGFEGVYRYLEMYTNK | – | – | – | Ka [6]: 1400 M⁻¹; Kd [6]: 694 µM
